This note sets out measurements from paper doi:10.1101/2025.08.25.672209, “Molecular Architecture and Function Mechanism of Tri-heteromeric GluN1-N2-N3A NMDA Receptors” (bioRxiv, 2025).

Test [1] deals with T1, GluN1-N3A di-heteromeric NMDA receptor (rat, CTD-truncated; fraction of the same preparation) (rat, UniProt P35439-1;Q9R1M7-1).
T1 construct: signal peptide in the construct; rat GluN1-1a, residues 1-847, as m1; rat GluN3A, residues 1-965, as m3; also called GluN1-N3A di-NMDARs; source: HEK293S GnTI- cells, baculovirus transduction; copies: 2 + 2
Put plainly: SEC; fluorescence-detection size-exclusion chromatography (FSEC); receptors preincubated with N1-Fab 4F11, N2A-Fab 28C or both; shift of the elution peak. Conditions: both partners purified. (In gel filtration, larger molecules generally elute earlier.)

Test [2] concerns the target T2, rat GluN1-1a (residues 1-847), CTD-truncated (rat, UniProt P35439-1).
T2 construct: signal peptide in the construct; rat GluN1-1a, residues 1-847 (CTD-truncated), GenBank NP_058706.1; no tag is stated for GluN1 itself; a T2A remnant may remain on one of the two chains (surmise); source: HEK293S GnTI- cells, baculovirus transduction, co-expressed with GluN2A and GluN3A; purified as receptor complex (Strep-Tactin, Ni resin, SEC)
Put plainly: cryo-EM structure; GluN1-N2A-N3A (subunits co-expressed and co-purified) incubated with Fabs 4F11 and 2-8C, SEC in digitonin with 1 mM glycine and 1 mM glutamate, pH 8.0; overall resolution 7.7 Å. Conditions: both partners purified.

B1: N1-Fab 4F11 (Fab of the anti-GluN1 monoclonal antibody clone 4F11) (Fab, V domains shown)
VH: DVQLQESGPGLVKPSQSLSLTCTVTGYSITSDYAWNWIRQFPGNKLEWMGYISYSGSTGYNPSLKSRISITRDTSKNQFFLQLNSVTTEDTATYYCARLYYGFYGMDYWGQGTSVTVSS
VL: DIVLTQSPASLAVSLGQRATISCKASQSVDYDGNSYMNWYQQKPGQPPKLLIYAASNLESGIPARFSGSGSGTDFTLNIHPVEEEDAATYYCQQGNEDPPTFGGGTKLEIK
notes: Raised against CTD-truncated human GluN1-N2A receptors; also called Fab-N1_(4F11); source: hybridoma monoclonal antibody, papain digestion, Fc removed with protein-A agarose, purified by SEC
B1: the binding result in test [1] and in test [2] was “binds” throughout.
